Values quoted from earlier work, collected in paper PMC11266353, “Synthesis of a highly thermostable insulin by phenylalanine conjugation at B29 Lysine” (Communications Chemistry, 2024).

Set-up: method as in Protein J., 2023, 42, 383
Conditions: ref Protein J., 2023, 42, 383

Modified insulin: insulin analog reported in Protein J., 2023, 42, 383: tri-acetylated at Gly A1, Phe B1 and Lys B29
Melting temperature: 72.5 °C
